The target of the test is full-length SARS-CoV-2 spike protein, wildtype, surface expressed (SARS-CoV-2, UniProt P0DTC2). Briefly: flow cytometry on cells. In general terms: A flow cytometer gives signals particle by particle.

B1: human monoclonal antibody 47D11 (antibody, V domains shown)
VH: QVQLQESGPGLVKPSETLSLTCSVSGGSISSHYWSWIRQPPGKGLEWIGYIYYSGSTNHNPSLKSRVTISVDTSKNQFSLKLSSVTAADTAVYYCARGVLLWFGEPIFEIWGQGTMVTVSS
VL: EIVMTQSPATLSVSPGERATLSCRASQSVSSSLAWYQQKPGQAPRLLIYGASTRAPGIPARFSGSGSGTEFTLTISSLQSEDFAVYYCQQYNNWPLTFGGGTKVEI
As to B1, the binding result is “binds”.

The values above are taken from paper doi:10.1101/2020.09.30.318261 (bioRxiv, 2020).
